Laboratory results as given in article doi:10.1101/2021.10.03.462214.

Target: human 26S proteasome (human) (UniProt P60900)

“K48 linked tetra-ubiquitin chains (from UniProt P0CG47 1-76)” showed a Kd of 239 nM.
